Here are results for two substances from paper PMC6800134.

This assay deals with GST-tagged Rb RxL mut (lacks all 5 RxL sequences in its unstructured regions) (human) (UniProt P06400).
UniProt P06400, sequence (P06400 whole entry): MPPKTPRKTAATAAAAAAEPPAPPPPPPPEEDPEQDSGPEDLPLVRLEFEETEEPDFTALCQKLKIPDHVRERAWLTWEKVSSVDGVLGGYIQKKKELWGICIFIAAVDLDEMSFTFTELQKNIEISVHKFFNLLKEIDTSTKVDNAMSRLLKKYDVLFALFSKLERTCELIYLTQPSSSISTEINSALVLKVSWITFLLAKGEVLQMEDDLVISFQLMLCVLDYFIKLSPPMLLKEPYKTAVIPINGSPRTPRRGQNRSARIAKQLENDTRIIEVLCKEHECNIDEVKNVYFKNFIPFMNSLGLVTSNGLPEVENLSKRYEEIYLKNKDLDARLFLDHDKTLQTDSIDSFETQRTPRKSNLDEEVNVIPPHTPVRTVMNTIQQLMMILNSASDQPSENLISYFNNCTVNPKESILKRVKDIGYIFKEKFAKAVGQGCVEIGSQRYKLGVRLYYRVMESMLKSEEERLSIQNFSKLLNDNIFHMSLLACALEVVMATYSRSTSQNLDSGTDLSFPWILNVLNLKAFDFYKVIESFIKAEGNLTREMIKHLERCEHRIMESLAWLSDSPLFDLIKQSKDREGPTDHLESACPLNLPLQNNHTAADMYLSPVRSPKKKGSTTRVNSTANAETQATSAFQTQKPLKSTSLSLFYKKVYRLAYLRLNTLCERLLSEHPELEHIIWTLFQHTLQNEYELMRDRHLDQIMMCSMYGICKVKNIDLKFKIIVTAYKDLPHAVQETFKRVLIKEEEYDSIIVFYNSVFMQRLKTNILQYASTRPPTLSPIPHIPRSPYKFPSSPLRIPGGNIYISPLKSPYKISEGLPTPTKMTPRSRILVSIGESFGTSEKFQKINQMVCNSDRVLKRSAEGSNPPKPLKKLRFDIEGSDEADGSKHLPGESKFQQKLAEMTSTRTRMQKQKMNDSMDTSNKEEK

In turn, “3X FLAG-tagged cyclin A-Cdk2 fusion complex (enzyme)” registered an in vitro kinase assay: fold less phosphorylation than wild type Rb of 2.9 fold.
“3X FLAG-tagged cyclin E1-Cdk2 fusion complex (enzyme)”: the in vitro kinase assay: fold less phosphorylation than wild type Rb was 2 fold.
